Laboratory results reported in patent US20210054097A1 (Novo Nordisk, published 2021).
Ends that are not written are not given here.

Key:
[1] = molecular target: human activated Factor X (human, UniProt P00742 41-179; P00742 235-488); test: cell-based or functional assay
[2] = molecular target: T1, FX activation peptide 12-mer ADLDPTENPFDL (human); test: peptide ELISA
T1 peptide: ADLDPTENPFDL-biotin
Procedure: (§1) The peptides were C-terminally conjugated to biotin and 50 μL of 1 μg/mL peptide solution was used for immobilization in discrete wells of the microtiter plate which was pre-coated with 1 μg/mL streptavidin. Each well was washed with washing buffer (10 mM Tris, 150 mM NaCl, 2.5 mM CaCl₂, 0.05% Tween 20, pH 8.60) followed by addition of 50 μL of 2 μg/mL FLAG-tagged anti-FX Nanobody® or IgG antibody to be tested. After 1 hour non-bound Nanobody®/antibody was washed off using washing buffer.
(§2) Bound anti-FX activation peptide ligand was detected by first binding a HRP-labelled secondary antibody (for FLAG-tagged Nanobodies: Anti-FLAG mAb M2-Peroxidase (HRP) (Sigma Aldrich, US), for antibody: Fcγ Fragment Specific Peroxidase AffiniPure F(ab′)₂ Fragment Goat Anti-Human IgG (Jackson ImmunoResearch Laboratories, Inc., US), or Peroxidase AffiniPure Goat Anti-Mouse IgG (Jackson ImmunoResearch Laboratories, Inc., US)) for 1 hour, and then adding 100 μL TMB-1 ELISA substrate (Kem-En-Tec Diagnostics, Denmark).

[3] = molecular target: T2, FX activation peptide 12-mer LLDFNQTQPERG (human); test: peptide ELISA
T2 peptide: LLDFNQTQPERG-biotin
Procedure: as §1, §2

[4] = molecular target: T3, FX activation peptide 12-mer SITWKPYDAADL (human); test: peptide ELISA
T3 peptide: SITWKPYDAADL-biotin
Procedure: as §1, §2

[5] = molecular target: T4, FX activation peptide 12-mer DLLDFNQTQPER (human); test: peptide ELISA
T4 peptide: DLLDFNQTQPER-biotin
Procedure: as §1, §2

[6] = molecular target: T5, FX activation peptide 12-mer DSITWKPYDAAD (human); test: peptide ELISA
T5 peptide: DSITWKPYDAAD-biotin
Procedure: as §1, §2

[7] = molecular target: T6, FX activation peptide 12-mer FDLLDFNQTQPE (human); test: peptide ELISA
T6 peptide: FDLLDFNQTQPE-biotin
Procedure: as §1, §2

[8] = molecular target: T7, FX activation peptide 12-mer TQPERGDNNLTR (human); test: peptide ELISA
T7 peptide: TQPERGDNNLTR-biotin
Procedure: as §1, §2

[9] = molecular target: T8, FX activation peptide 12-mer ENPFDLLDFNQT (human); test: peptide ELISA
T8 peptide: ENPFDLLDFNQT-biotin
Procedure: as §1, §2

[10] = molecular target: T9, FX activation peptide 12-mer NPFDLLDFNQTQ (human); test: peptide ELISA
T9 peptide: NPFDLLDFNQTQ-biotin
Procedure: as §1, §2

[11] = molecular target: T10, FX activation peptide 12-mer PTENPFDLLDFN (human); test: peptide ELISA
T10 peptide: PTENPFDLLDFN-biotin
Procedure: as §1, §2

[12] = molecular target: T11, FX activation peptide 12-mer PYDAADLDPTEN (human); test: peptide ELISA
T11 peptide: PYDAADLDPTEN-biotin
Procedure: as §1, §2

[13] = molecular target: T12, FX activation peptide 12-mer TENPFDLLDFNQ (human); test: peptide ELISA
T12 peptide: TENPFDLLDFNQ-biotin
Procedure: as §1, §2

[14] = molecular target: T13, FX activation peptide 12-mer SSSGEAPDSITW (human); test: peptide ELISA
T13 peptide: SSSGEAPDSITW-biotin
Procedure: as §1, §2

[15] = molecular target: T14, FX activation peptide 12-mer LDFNQTQPERGD (human); test: peptide ELISA
T14 peptide: LDFNQTQPERGD-biotin
Procedure: as §1, §2

[16] = molecular target: T15, FX activation peptide 12-mer EAPDSITWKPYD (human); test: peptide ELISA
T15 peptide: EAPDSITWKPYD-biotin
Procedure: as §1, §2

[17] = molecular target: T16, FX activation peptide 12-mer LDPTENPFDLLD (human); test: peptide ELISA
T16 peptide: LDPTENPFDLLD-biotin
Procedure: as §1, §2

[18] = molecular target: T17, FX activation peptide 12-mer ATSSSGEAPDSI (human); test: peptide ELISA
T17 peptide: ATSSSGEAPDSI-biotin
Procedure: as §1, §2

[19] = molecular target: T18, FX activation peptide 12-mer TWKPYDAADLDP (human); test: peptide ELISA
T18 peptide: TWKPYDAADLDP-biotin
Procedure: as §1, §2

[20] = molecular target: T19, FX activation peptide 12-mer GEAPDSITWKPY (human); test: peptide ELISA
T19 peptide: GEAPDSITWKPY-biotin
Procedure: as §1, §2

[21] = molecular target: T20, FX activation peptide 12-mer QATSSSGEAPDS (human); test: peptide ELISA
T20 peptide: QATSSSGEAPDS-biotin
Procedure: as §1, §2

[22] = molecular target: T21, FX activation peptide 12-mer YDAADLDPTENP (human); test: peptide ELISA
T21 peptide: YDAADLDPTENP-biotin
Procedure: as §1, §2

[23] = molecular target: T22, FX activation peptide 12-mer QTQPERGDNNLT (human); test: peptide ELISA
T22 peptide: QTQPERGDNNLT-biotin
Procedure: as §1, §2

[24] = molecular target: T23, FX activation peptide 12-mer TSSSGEAPDSIT (human); test: peptide ELISA
T23 peptide: TSSSGEAPDSIT-biotin
Procedure: as §1, §2

[25] = molecular target: T24, FX activation peptide 12-mer PDSITWKPYDAA (human); test: peptide ELISA
T24 peptide: PDSITWKPYDAA-biotin
Procedure: as §1, §2

[26] = molecular target: T25, FX activation peptide 12-mer AADLDPTENPFD (human); test: peptide ELISA
T25 peptide: AADLDPTENPFD-biotin
Procedure: as §1, §2

[27] = molecular target: T26, FX activation peptide 12-mer FNQTQPERGDNN (human); test: peptide ELISA
T26 peptide: FNQTQPERGDNN-biotin
Procedure: as §1, §2

[28] = molecular target: T27, FX activation peptide 12-mer SSGEAPDSITWK (human); test: peptide ELISA
T27 peptide: SSGEAPDSITWK-biotin
Procedure: as §1, §2

[29] = molecular target: T28, FX activation peptide 12-mer DAADLDPTENPF (human); test: peptide ELISA
T28 peptide: DAADLDPTENPF-biotin
Procedure: as §1, §2

[30] = molecular target: T29, FX activation peptide 12-mer KPYDAADLDPTE (human); test: peptide ELISA
T29 peptide: KPYDAADLDPTE-biotin
Procedure: as §1, §2

[31] = molecular target: T30, FX activation peptide 12-mer AQATSSSGEAPD (human); test: peptide ELISA
T30 peptide: AQATSSSGEAPD-biotin
Procedure: as §1, §2

[32] = molecular target: T31, FX activation peptide 12-mer PFDLLDFNQTQP (human); test: peptide ELISA
T31 peptide: PFDLLDFNQTQP-biotin
Procedure: as §1, §2

[33] = molecular target: T32, FX activation peptide 12-mer ITWKPYDAADLD (human); test: peptide ELISA
T32 peptide: ITWKPYDAADLD-biotin
Procedure: as §1, §2

[34] = molecular target: T33, FX activation peptide 12-mer DFNQTQPERGDN (human); test: peptide ELISA
T33 peptide: DFNQTQPERGDN-biotin
Procedure: as §1, §2

[35] = molecular target: T34, FX activation peptide 12-mer SGEAPDSITWKP (human); test: peptide ELISA
T34 peptide: SGEAPDSITWKP-biotin
Procedure: as §1, §2

[36] = molecular target: T35, FX activation peptide 12-mer DLDPTENPFDLL (human); test: peptide ELISA
T35 peptide: DLDPTENPFDLL-biotin
Procedure: as §1, §2

[37] = molecular target: T36, FX activation peptide 12-mer APDSITWKPYDA (human); test: peptide ELISA
T36 peptide: APDSITWKPYDA-biotin
Procedure: as §1, §2

[38] = molecular target: T37, FX activation peptide 12-mer WKPYDAADLDPT (human); test: peptide ELISA
T37 peptide: WKPYDAADLDPT-biotin
Procedure: as §1, §2

[39] = molecular target: T38, FX activation peptide 12-mer DPTENPFDLLDF (human); test: peptide ELISA
T38 peptide: DPTENPFDLLDF-biotin
Procedure: as §1, §2

human activated Factor X, sequence (P00742 41-179, chain 1 of 2): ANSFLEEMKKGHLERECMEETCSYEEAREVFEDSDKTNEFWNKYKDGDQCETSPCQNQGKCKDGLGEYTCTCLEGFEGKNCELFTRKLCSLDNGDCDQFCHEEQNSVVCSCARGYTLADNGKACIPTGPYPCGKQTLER
human activated Factor X, sequence (P00742 235-488, chain 2 of 2): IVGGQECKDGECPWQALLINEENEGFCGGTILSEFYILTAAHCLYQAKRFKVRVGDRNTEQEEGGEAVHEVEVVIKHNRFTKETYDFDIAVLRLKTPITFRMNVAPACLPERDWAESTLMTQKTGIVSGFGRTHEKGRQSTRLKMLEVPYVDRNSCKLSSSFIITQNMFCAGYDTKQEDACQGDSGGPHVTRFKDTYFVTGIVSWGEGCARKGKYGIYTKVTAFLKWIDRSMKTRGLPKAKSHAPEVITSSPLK

B1: mAb 13F62 (antibody, V domains shown)
VH: EVQLVESGGGQVKPGGSLRLSCAASGFTFSTSSIYWVRQAPGKGLEWVSSISSGSSYIFYADSVKGRFTISRDNAKNSLFLQMNSLRAEDTAVYYCVSGYSRLLDYWGQGTLVTVSS
VL: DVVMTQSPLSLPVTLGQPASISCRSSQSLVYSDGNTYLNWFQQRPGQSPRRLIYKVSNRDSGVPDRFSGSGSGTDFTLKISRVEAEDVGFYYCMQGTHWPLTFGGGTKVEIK
notes: IgG1 isotype
- FXa amidolytic activity (relative to free FXa, fold) [1]: 0.94 fold
- ELISA signal relative to background [2]: 1.25
- ELISA signal relative to background [3]: 0.86
- ELISA signal relative to background [4]: 7.95
- ELISA signal relative to background [5]: 0.82
- ELISA signal relative to background [6]: 3.61
- ELISA signal relative to background [7]: 30.6
- ELISA signal relative to background [8]: 8.86
- ELISA signal relative to background [9]: 28.7
- ELISA signal relative to background [10]: 28.6
- ELISA signal relative to background [11]: 30.1
- ELISA signal relative to background [12]: 0.84
- ELISA signal relative to background [13]: 29.7
- ELISA signal relative to background [14]: 0.77
- ELISA signal relative to background [15]: 0.8
- ELISA signal relative to background [16]: 1.64
- ELISA signal relative to background [17]: 31
- ELISA signal relative to background [18]: 3.2
- ELISA signal relative to background [19]: 1.95
- ELISA signal relative to background [20]: 1.5
- ELISA signal relative to background [21]: 1.82
- ELISA signal relative to background [22]: 0.84
- ELISA signal relative to background [23]: 1.95
- ELISA signal relative to background [24]: 0.68
- ELISA signal relative to background [25]: 1.89
- ELISA signal relative to background [26]: 0.77
- ELISA signal relative to background [27]: 1.77
- ELISA signal relative to background [28]: 0.73
- ELISA signal relative to background [29]: 0.77
- ELISA signal relative to background [30]: 0.77
- ELISA signal relative to background [31]: 1.89
- ELISA signal relative to background [32]: 29.7
- ELISA signal relative to background [33]: 4.23
- ELISA signal relative to background [34]: 1.23
- ELISA signal relative to background [35]: 0.82
- ELISA signal relative to background [36]: 26.4
- ELISA signal relative to background [37]: 1.59
- ELISA signal relative to background [38]: 1.18
- ELISA signal relative to background [39]: 29.8
